# Source: patent US20230220042A1 (SHANGHAI JIAO TONG UNIVERSITY SCHOOL OF MEDICINE, published 2023)
# Target: human OX40 (human) (UniProt P43489)
# Experiment: cell-based or functional assay
# human OX40 (human), sequence (P43489 29-277): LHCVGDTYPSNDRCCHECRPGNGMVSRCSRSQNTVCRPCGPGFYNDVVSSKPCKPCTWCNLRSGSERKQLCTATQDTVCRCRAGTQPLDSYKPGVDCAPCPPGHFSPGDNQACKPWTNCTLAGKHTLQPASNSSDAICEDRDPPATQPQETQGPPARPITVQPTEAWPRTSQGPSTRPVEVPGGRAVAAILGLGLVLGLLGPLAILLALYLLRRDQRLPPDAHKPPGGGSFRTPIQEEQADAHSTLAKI
Average increased factor of the activity over wild-type IgG2 of two experiments,"Experiment 1 CFSE fluorescence intensity, 0.01 µg/ml","Experiment 1 CFSE fluorescence intensity, 0.1 µg/ml","Experiment 1 CFSE fluorescence intensity, 1 µg/ml","Experiment 2 CFSE fluorescence intensity, 0.1 µg/ml","Experiment 2 CFSE fluorescence intensity, 1 µg/ml",Average relative activity of two experiments,Experiment 1 average relative activity,"Experiment 1 relative activity, 0.01 µg/ml","Experiment 1 relative activity, 0.1 µg/ml",Molecule
0.65,1020,1080,1070,2730,2590,,,,,Ctrl hIgG (antibody)
12.3,844,719,799,1810,1440,0.54,0.46,0.36,0.59,"anti-human OX40 antibody, human IgG2 Fc mutant Mut_8 (V266L/L328W) (antibody, name in EU numbering) heavy: QVQLQESGPGLVKPSGTLSLTCAVSGGSISSSIWWSWVRQPPGKGLEWIGEIHHSGNTNCNPSLKSRVTISIDKSKNQFSLKLTSVTAADTAVYYCARAGTGTTLDYWGQGTLVTVSSASTKGPSVFPLAPCSRSTSESTAALGCLVKDYFPEPVTVSWNSGALTSGVHTFPAVLQSSGLYSLSSVVTVPSSNFGTQTYTCNVDHKPSNTKVDKTVERKCCVECPPCPAPPVAGPSVFLFPPKPKDTLMISRTPEVTCVVVDLSHEDPEVQFNWYVDGVEVHNAKTKPREEQFNSTFRVVSVLTVVHQDWLNGKEYKCKVSNKGWPAPIEKTISKTKGQPREPQVYTLPPSREEMTKNQVSLTCLVKGFYPSDIAVEWESNGQPENNYKTTPPMLDSDGSFFLYSKLTVDKSRWQQGNVFSCSVMHEALHNHYTQKSLSLSPGK light: EIVLTQSPGTLSLSPGERATLSCRASQSVSGDYLAWYQQKLGQAPRLLIYGASIRATGIPDRFSGSGSGTDFTLTISKLEPEDFAVYYCQQYGSSPLTFGGGTKVEIKRTVAAPSVFIFPPSDEQLKSGTASVVCLLNNFYPREAKVQWKVDNALQSGNSQESVTEQDSKDSTYSLSSTLTLSKADYEKHKVYACEVTHQGLSSPVTKSFNRGEC"
16.5,685,654,677,1550,1150,0.72,0.67,0.65,0.71,"anti-human OX40 antibody, human IgG2 Fc mutant Mut_2 (H268D/S298L/L328W) (antibody, name in EU numbering) heavy: QVQLQESGPGLVKPSGTLSLTCAVSGGSISSSIWWSWVRQPPGKGLEWIGEIHHSGNTNCNPSLKSRVTISIDKSKNQFSLKLTSVTAADTAVYYCARAGTGTTLDYWGQGTLVTVSSASTKGPSVFPLAPCSRSTSESTAALGCLVKDYFPEPVTVSWNSGALTSGVHTFPAVLQSSGLYSLSSVVTVPSSNFGTQTYTCNVDHKPSNTKVDKTVERKCCVECPPCPAPPVAGPSVFLFPPKPKDTLMISRTPEVTCVVVDVSDEDPEVQFNWYVDGVEVHNAKTKPREEQFNLTFRVVSVLTVVHQDWLNGKEYKCKVSNKGWPAPIEKTISKTKGQPREPQVYTLPPSREEMTKNQVSLTCLVKGFYPSDIAVEWESNGQPENNYKTTPPMLDSDGSFFLYSKLTVDKSRWQQGNVFSCSVMHEALHNHYTQKSLSLSPGK light: EIVLTQSPGTLSLSPGERATLSCRASQSVSGDYLAWYQQKLGQAPRLLIYGASIRATGIPDRFSGSGSGTDFTLTISKLEPEDFAVYYCQQYGSSPLTFGGGTKVEIKRTVAAPSVFIFPPSDEQLKSGTASVVCLLNNFYPREAKVQWKVDNALQSGNSQESVTEQDSKDSTYSLSSTLTLSKADYEKHKVYACEVTHQGLSSPVTKSFNRGEC"

# Same assay, conditions: not given
"Experiment 1 relative activity, 1 µg/ml",Experiment 2 average relative activity,"Experiment 2 relative activity, 0.1 µg/ml","Experiment 2 relative activity, 1 µg/ml",Molecule
0.44,0.65,0.55,0.75,"anti-human OX40 antibody, human IgG2 Fc mutant Mut_8 (V266L/L328W) (antibody, name in EU numbering) heavy: QVQLQESGPGLVKPSGTLSLTCAVSGGSISSSIWWSWVRQPPGKGLEWIGEIHHSGNTNCNPSLKSRVTISIDKSKNQFSLKLTSVTAADTAVYYCARAGTGTTLDYWGQGTLVTVSSASTKGPSVFPLAPCSRSTSESTAALGCLVKDYFPEPVTVSWNSGALTSGVHTFPAVLQSSGLYSLSSVVTVPSSNFGTQTYTCNVDHKPSNTKVDKTVERKCCVECPPCPAPPVAGPSVFLFPPKPKDTLMISRTPEVTCVVVDLSHEDPEVQFNWYVDGVEVHNAKTKPREEQFNSTFRVVSVLTVVHQDWLNGKEYKCKVSNKGWPAPIEKTISKTKGQPREPQVYTLPPSREEMTKNQVSLTCLVKGFYPSDIAVEWESNGQPENNYKTTPPMLDSDGSFFLYSKLTVDKSRWQQGNVFSCSVMHEALHNHYTQKSLSLSPGK light: EIVLTQSPGTLSLSPGERATLSCRASQSVSGDYLAWYQQKLGQAPRLLIYGASIRATGIPDRFSGSGSGTDFTLTISKLEPEDFAVYYCQQYGSSPLTFGGGTKVEIKRTVAAPSVFIFPPSDEQLKSGTASVVCLLNNFYPREAKVQWKVDNALQSGNSQESVTEQDSKDSTYSLSSTLTLSKADYEKHKVYACEVTHQGLSSPVTKSFNRGEC"
0.66,0.8,0.69,0.9,"anti-human OX40 antibody, human IgG2 Fc mutant Mut_2 (H268D/S298L/L328W) (antibody, name in EU numbering) heavy: QVQLQESGPGLVKPSGTLSLTCAVSGGSISSSIWWSWVRQPPGKGLEWIGEIHHSGNTNCNPSLKSRVTISIDKSKNQFSLKLTSVTAADTAVYYCARAGTGTTLDYWGQGTLVTVSSASTKGPSVFPLAPCSRSTSESTAALGCLVKDYFPEPVTVSWNSGALTSGVHTFPAVLQSSGLYSLSSVVTVPSSNFGTQTYTCNVDHKPSNTKVDKTVERKCCVECPPCPAPPVAGPSVFLFPPKPKDTLMISRTPEVTCVVVDVSDEDPEVQFNWYVDGVEVHNAKTKPREEQFNLTFRVVSVLTVVHQDWLNGKEYKCKVSNKGWPAPIEKTISKTKGQPREPQVYTLPPSREEMTKNQVSLTCLVKGFYPSDIAVEWESNGQPENNYKTTPPMLDSDGSFFLYSKLTVDKSRWQQGNVFSCSVMHEALHNHYTQKSLSLSPGK light: EIVLTQSPGTLSLSPGERATLSCRASQSVSGDYLAWYQQKLGQAPRLLIYGASIRATGIPDRFSGSGSGTDFTLTISKLEPEDFAVYYCQQYGSSPLTFGGGTKVEIKRTVAAPSVFIFPPSDEQLKSGTASVVCLLNNFYPREAKVQWKVDNALQSGNSQESVTEQDSKDSTYSLSSTLTLSKADYEKHKVYACEVTHQGLSSPVTKSFNRGEC"
